{
  "source": "the DeepSol protein solubility set",
  "data": [
    {"assay": "soluble on expression in E. coli; label from the status in PepcDB or PDB records", "values": [
      {"sequence": "MEVMAQIVLAPHLAGRFDDPDHIRRCIQLYSYRIPANYRRLFDFLFNTEQDFPDCDEFSFFVSVRLNIPTKILNFSEEFGKCVSLHILRKLDVIPPFSKRSQLIILKEVESLKKSIRLCDHMEQCVVAAFQQLLEDEEACIQSVHRLMPVITRSLSQSALEDLINPMIELIQCETSVKLLDRRFLMHVSICYGTHTFLDLFLPPIVEACASMNCDRSVVAKESIMWLAKRYGPVICAKFISSNVLRIMASCYEAFEMVGLEQQPKAVFNVVLQGDETCSRIESLLSEIVLTYSVTFITVQFLPFCVDLIEQFHKRSSVQLEPGLVSVFRIVELSIRSMSDHQLMNYLEEFIIQKVCQLLHSITQKIGTENTRIYANQPFKLMFSTFSEIYETDEELRINLRKRPSENTLFEVPLWMVEDVVDKFAKEWGVPFLSSFCDDPAFLIPFVSNSSSSSSPPASIAHSPPSAFTAYSLGGMSSGNRLFSLSASSPVNSVNSLGGLSFCDSGSLSAVWCARVSAAVCGVDNYRFDHLSLCNYTGHQEKIRKLAAISNENSFVSASSDKTVKLWSIKPELDEIGCQWTYQKHTRPVHDITILADNSIASTDGVLHVWDPFRTTLLAQMEWDSKEGSGGNIMRVENVDRHILSAICSLHSTVKLFDSRVGGWTCELKVSPGPGLTRAITVRDKGNKMAVALSNGTLAILDARNGKINALAQTNSTHTVSVNWLSDTRLLVCDADECGIFLETNPRAHIVRKLQDPSIPKQW", "soluble on expression in E. coli": "not soluble"},
      {"sequence": "MEVPSLFTNFFAVNNPDSPPARQKTKLRELEHRFWQEHLPGDDDDHSTAISSLAIVTGLTKAQVSRISIAFATLADLPELKALQQKLYHLDLSRLITISNELAGINPDNLAGADAILTEYLTATSPNQILPSPASIGRKIKEIRDLLDDARATGSRGTQDDSSFGVTFSPDGTAEIGASVDAVDGHIINDAVTQHAKKNDLTYGEAFSDILRNNIQVKVVLNLYTAKDLANAPVWASGIGWLDAKTGTFWSEKANKEQDMDAAAKISTDKHDPPPALRDALIGRDGTCRFPGCSVPALKTQADHRIPYEEGGETCLGGIGCLCQHHHNMKTDGRVTYLLDPFSGIIVWLMGDGTWAVSEPNGPLNPKNARWAQTVAQHRARHHKRWVKEDAKLEHHHHHH", "soluble on expression in E. coli": "not soluble"},
      {"sequence": "MEVSHVTLEPNKDSRPAVLTIGKFDGVHLGHQTILNTALSIKKENEILTAISFSPHPLWALKQIEIYREMLTPRMEKERWLAHYGVDHLIETAFTPRYAETTPEEFVTDHLSNLQLSHIIVGSEFNFGKGRDSDVDLLRDLCKPYGIGVTSVPVIETNQTKISSTNIRAFIRRGHFLEAEQLLGHP", "soluble on expression in E. coli": "not soluble"},
      {"sequence": "MEVVLHEGDAKDWVYKGEGAANLILSYTGSSPSMLGKVLRVKKILKDKGQPAPNCIVFSSHEEHLWGKIPGLLESVKNDCLPQAYATIVMSQHLGANHVDGGVRVRVSKNFFELAGKNVLDNRPAWRVNASAIDAGADSALLISDHTLFSGNPRGSSCIAVEIKAKCGFLPSSEYISKENSIKKQVTRYKMHQHLKFHLGEISKTSEYDPLDLFSGSKERIHMAIKSFFSTPQNNFRIFVDGSLVFGGMGGGADSVHPNETEKCLEDLSKVTGLQLSDFIELLSEAIFKSGVLGKLLATQKLDDHDIEGAIHLYYNIISQPCLVCKSITDTELLRKYSTLHSLPLDKSEKIVRDFLISATAKDCSLMISFRPRQSGTTDSEYDSVFLDSVNQSYDYKAYFIDLDVKPLDKMVLLPSRENV", "soluble on expression in E. coli": "soluble"},
      {"sequence": "MEWIKQILAKHMKEDGTLDMEAANKEIDKEFPVNAVPKDQYNNLSSQLAEANKTLKSLEAKTKDNPDVQKELADLKEKADALEKENKDLKINSQVSAALQSAGAKDIDYALFKLGELELDKDGNVKDLESKVKDLKASIPDYFEKKDTLDDKSKKKTENKAGYQPIDNKLPKGKEPNEKDPFEAILSKYE", "soluble on expression in E. coli": "not soluble"},
      {"sequence": "MEYFDMRKMSVNLWRNAAGETREICTFPPAKRDFYWRASIASIAANGEFSLFPGMERIVTLLEGGEMLLESADRFNHTLKPFQPFAFAADQVVKAKLTAGQMSMDFNIMTRLDVCKAKVRIAERTFTTFGSRGGVVFVINGAWQLGDKLLTTDQGACWFDGRHTLRLLQPQGKLLFSEINWLAGHSPDQVQ", "soluble on expression in E. coli": "soluble"},
      {"sequence": "MEYKPIRKVVSGNYAAAYAALHARVQVVAAYPITPQTSIIEKIAEFIANGEADIQYIPVESEHSAMAACIGASATGARTFTATSAQGLALMHEMLHWAAGARLPIVMVDVNRAMAPPWSVWDDQTDSLSQRDTGWMQFYAENNQEVYDGVLMAYKVAETVNVPAMVVESAFILSHTYDVVEMIPQELVDEFLPPRKPLYSLANFDEPIAVGALATPNDYYEFRYKLAKAHEEAKKVIKEVGKEFGERFGRDYSQMIETGYIDDADFVFMGMGSLMGTVKEAVDLLRKEGYKVGYAKVRWFRPFPKEELVEIAESVKGIAVLDRNFSFGQEGILFTESKGALYNSSAHPLMKNYIVGLGGRDVTVKDIKAIADDMKKVIESGKVDKEVVWYHLKR", "soluble on expression in E. coli": "not soluble"},
      {"sequence": "MEYQFTHSIHGIVAKCSMEHEVFARWLNTEIIGHTQNLHNILAEIEKCRAAFPNHYECVFEGQEYSLYFDCDEVIVKVNNLAMAIDEVIVEEGLQLYDQESVAFCGLEDFERFLQAYHKFSSTYH", "soluble on expression in E. coli": "not soluble"},
      {"sequence": "MEYRKVGKWGVKISELSLGSWLTFGKQLDLDTATEVVKKAFNSGINFFDTAEAYAGGIAEAMLGKILKNFRREDLVVSTKIFWGGSGPNDLGLSKKHLLEGTWNSLKRLQMDYVDILYCHRPDPNVPMEEVVFAMDYILREGLALYWGTSEWSAKEIEEAHRVCKELGVMPPIVEQPQYNMFVRERVEKEYAPLYEKYGMGLTTYSPLASGLLSGKYNNGIPEGSRLATFPQVRKWLEEGGLLNEKTFKKLRKLQNIADQLGASLPQLAIAWILKNKNVSSVILGVSRPEQLEENLKAVEIKEKLTEDVMEEIEKILNE", "soluble on expression in E. coli": "soluble"},
      {"sequence": "MFARLANPAHFKPLTGSHITRAAKRLYHPKVIDHYTNPRNVGSMDKSLANVGTGIVGAPACGDVIKLQIQVNDKSGIIENVKFKTFGCGSAIASSSYMTELVRGMSLDEAVKIKNTEIAKELSLPPVKLHCSMLAEDAIKAAIKDYKTKRNPSVLH", "soluble on expression in E. coli": "not soluble"},
      {"sequence": "MFAVRTKFVTKTEVVLRTVYTALEKGLAVIGPTQVAEELGVSKSTAQKMLNELSKAGYGVYVPKKGLVLNERGKMEARAAVRMHRLIECLLADLGVEDFCKEAEKIGMVAGSSLVDALEARYGDREFCPCGKRIPEVKK", "soluble on expression in E. coli": "not soluble"},
      {"sequence": "MFCGRFANFIMRDVINFIKKYNNFVIIGHKDPDFDCIGSSLALSSFLSRIGKNSILLNEGPFIRKEIVPFKDKFLSEWPNIEISEYSVIILDCSILDRIGDEFIFYVKNMPTLVIDHHMSGEKLECEGYIDPFAPSTTFLIEKLIREFGHDLTKEEAWYILVGFCTDTGFFKFISRSDPEPFEMVARLVSKGISLKEVYSYIETTKSLKSIETLKLMLNSLESYWNGKVLFTFLSSSSSGKDGGVSGVNELFYMILSNVENNEILGILKEMEDGSIIVGLRSKDSFDVGKLAEDFGGGGHKNASGFRIKQGSLEIVKNRMLAYIKDNIYLLEHHHHHH", "soluble on expression in E. coli": "not soluble"},
      {"sequence": "MFDILMYLFENYVHSEVELLVDEDELTKELTRAGFHQSEILKALTWLERLAELQEGDKPYLCNHDQHSFRIYTKDEMEKLDVECRGFLLFLEQVKVLNVETREMVIDRVMELDEPALILEDLKWVILMVLFNAPGHESAYEQMEDLIFEQPEEGRLHS", "soluble on expression in E. coli": "soluble"},
      {"sequence": "MFEEGSEDEVTLMGCTQDEVKPKVGLSQKKWFPKEDIVLVRAWLNTNKDHVIGNDQQCQSFLKQIASYVAISPQLDYLPKREHAKCKQRWSKVNKSVTKFVGCYKTATTHKTSGQSEDDVMKLAYEIYYNDTKKKFNLEHTWRKLRYDQKWCEAATIKGNKNAKRKCVDGY", "soluble on expression in E. coli": "soluble"},
      {"sequence": "MFEGKLVRLRAYRKEDIEKALEFANDPEVKKCLVPGIPFPWRKEDEEKWYQSLNPFSTDSYSFAIEKLSDGEYIGGCSINKIDWKNSVAEVGIFLGRPYWSQGYGTDAMRVLVRFIFNEMNMNKIKLHVFSFNERAKRVYEKIGFKVEGILRQELFREGRYHDVIVMGLLKSEWEDLTETDL", "soluble on expression in E. coli": "soluble"},
      {"sequence": "MFEKGIWLNEPRQWSVTDQRLTVITDPETDFWQQTHYGFCRDTGHFLGVSVKGEFTAQVHVQGDFKTLYDQAGLMVRVDERNWVKTGVEVSDGALMLGSVLTWGQSDWATGVFDDSSSGLWLRVTVAKGVMRIQHSSDGLRWPLLRLAAFPLSERYAVGAMCCSPERGGLKVVFSHFEVMPALGKDLHDLTLEHHHHHH", "soluble on expression in E. coli": "not soluble"},
      {"sequence": "MFEWIKTFIAVYETKNFSTAAKQLYISQPTVSLQIKKLEQHFSIKLFYRNGKQSVIPTKEADFLYPKMLSIIESLTTSFAQAAEKENFKEDCIIASSNTVAIYLLPDIMESLVTAFPLINFSIQLMNSNEVVDMVQNNHAHIGLIEKPIETKNLHKEIVYEDQLVLAGDAASKFWLLREKNSGLRFFNELYLNEHSINLPIIELNNNEVLLQLLKNNIGQSIVSRLSISDEIPWQPIDQSFASRKIFIVQTDHHANTSFSEVYNRIVEKIRERQT", "soluble on expression in E. coli": "not soluble"},
      {"sequence": "MFFIGIFGIENKQKEVKQLENIYCKTCSTRTMGTLIKSYEYFHIFFIPIFRWNEKYYVMCKRCNSIYEISKEKGKAIENGEINEVNLEDMTLIQEGQVYGKRAVKKVCPNCGKTVDGDYNYCPYCGSEILEHHHHHH", "soluble on expression in E. coli": "not soluble"},
      {"sequence": "MFGNSYGGYLANLCAKIAPWSIDFILDNSSFVNLFGNIFRLIGFGKEIDFTRYHGTYDDTLFKNIFLYLSDKTYWNNNKFSKNYFSNARKIIREPLNKEHLIIQSLYPNPKYILYHSIFDERSPFKNKENFVHILKELNFKVEFFAISQVDNKFIKNLNHGMGLSTKLFFKKHLLQILKEPLQDKICKKEVSYKCDELVYTFKEENHQIILNITN", "soluble on expression in E. coli": "not soluble"},
      {"sequence": "MFIESRELVMKHRIPVAKTERYWKGLEEGKVFKTVCKSCGKEHHPPRAECLCGGEVEWVEITGEGVVEAFTTVHTIPAGFEWHREPYTIAIARFGEVRVMGWAKEVRVGDVVRLKPGKDETGVWKVYFEVVLEHHHHHH", "soluble on expression in E. coli": "soluble"},
      {"sequence": "MFIGGAIISFLFLFGYMWKEAHSNRIRHVTLSFPHFPDNGPPLTIFFISDIHRRSVSCRMLETVKGKADLVVIGGDLAEKGVPAARVRENVRRLQTVAPVYFVWGNNDDEVDYDLQSLLEEERVYVLKNKAEVWEHGGVPIALIGVGDVSRKEADIARALEHVPPESFRILACHNPAIIARLEDEQHISLVLSGHTHGGQIRLFSFGLYEKGGLKWHGNTALFTSNGYGTTGVPLRLGAPAETHLIKIVPGKLATEKKCLSKTGKTMLEHHHHHH", "soluble on expression in E. coli": "not soluble"},
      {"sequence": "MFIQTEATPNPATLKFLPGKVVLESGTVEFLNASQAQASPLAERLFTIPGVTGVYFGFDFITVTKDDAEWQHLKPAILGSIMEHFMSGRPIMGTAIAAEVSDEEGEFFEEGDETIVATIKELLDTRVRPAVAQDGGDITFRGFRDGTVFLNMKGACSGCPSSTATLKHGVQNLLRHFVPEVREVEAV", "soluble on expression in E. coli": "not soluble"},
      {"sequence": "MFKIGSVLKQIRQELNYHQIDLYSGIMSKSVYIKVEADSRPISVEELSKFSERLGVNFFEILNRAGMNTKSVNETGKEKLLISKIFTNPDLFDKNFQRIEPKRLTSLQYFSIYLGYISIAHHYNIEVPTFNKTITSDLKHLYDKRTTFFGIDCEIVSNLLNVLPYEEVSSIIKPMYPIVDSFGKDYDLTIQTVLKNALTISIMNRNLKEAQYYINQFEHLKTIKNISINGYYDLEINYLKQIYQFLTDKNIDSYLNAVNIINIFKIIGKEDIHRSLVEELTKISAKEKFTPPKEVTMYYENYVAIENNPIPEIKEQS", "soluble on expression in E. coli": "soluble"}
    ]}
  ]
}
